Data as given in paper PMC11761707 (Proceedings of the National Academy of Sciences of the …, 2025).

Target: the molecule itself
Assay: crystal structure

B1: Nmar_1354, multicopper oxidase (MCO4 lineage) from Nitrosopumilus maritimus (enzyme)
chain: DSSDTFPKFKNPNPQTLSYTLIAQDAEIEVSPGVRAKVWTYNGTVPAPTLRFSEGDDVTVKFVNDTPYAHTIHFHGTHDSANDGVFPMIMPGEEYTYHFVAEEAGLFMYHCHAFPTSEHVRMGMFGTMIIDPAIRPMDPAREYFFTLSEFDPNNALEHFTEFYPINGYAGQYMDNPIRVVSGELTRFYVVGIGGVLQSPFHVHSTIMKVYPSGILWNEPYYAQTHLIGNGDTAIIEATWTQPGMYLFHVHGIQEERGSMAMIEVLEDASSLSDVQRPSNNKGSYSMVEWQEDLIRTLEQPQLISYENLGESAAISSEKVSADKVSIVKDSWNPEITESYDPIAIQVDSGTTVTWTNDDSVVHTVTDNENSFDSGFIQAGNTWSYSFDNPGEFDYICTLHPWMKGTISVN
Question: How did the “stoichiometry N” value turn out when B1 was run?
Answer: 3
